Data reported in the supplement of paper PMC9170038.

system: K4 kissing-loop RNA reporter; assay: apparent KD of K4 kissing-loop reporter; higher = weaker reporter binding; conditions: Eterna round: R107; input ligand: none
Method: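 RNA-MaP round R107: designed RNA switches with theophylline, tryptophan, arginine or FMN aptamers are transcribed on-chip within common flanks. They are titrated with a labelled K4 kissing-loop RNA reporter in RNA-MaP buffer (100 mM Tris pH 7.5, 80 mM KCl, 4 mM MgCl2), without ligand or with the indicated ligand. Median apparent KD per design.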
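Note: bound reporter read as fluorescence of individual clusters on recovered sequencing chips by microscopy, with normalized cluster intensities fitted with a binding model.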

Sequence | apparent KD of K4 kissing-loop reporter
GCUAUGGUAGGAAGGAGCGCUUGUUCGGUCAUAUGAGUGAUGUUCGAGACUGAGCAUUUAUAGCAGGUAGGUCGCCUACUAUAGC [Arginine B K4 10] | 181 nM
GCAAUUCUCAGUGAUGUUGAGUAAUCGGAAGGAGCGCGUGAAAACGCAGGUAGGUCGCCGAAACAUGAAGUAUCUUCGUGUUUGC [Arginine A K4 24] | 215 nM
GGAUUUGAGUGAUGUUUAAAACGAGUGUCCAAGGAUAUUGCCCAAACAAGAAGGUGGGCAUGCUUUUGCGAUAAUCAACGGAGAC [theeternabot_exclusion_KL_FMN_A_9] | 451 nM
GUAGGAUGAGGAGGAGGAUGAAUUACUGAAGGAGCGCAUAUUUUUGCAGGUAGGUCGCGGUAAAGAAGUAUAGUGAUGUUAUAUA [SSArgA.J] | 381 nM
CGUUUAUAGCAGGAUACCAGUACCCAUAAAGUACGUUAAUAGUAGAGUGAUGUUCUAAAGUACCCUUGGCAGCUUCCAGUGAGUG [ExTheophylB.S] | 142 nM
AAACGCUUGAAUAACAAGCGAAUAAAUUCGCGAGGACCGGUACGGCCGCCACUCGCUAACUGCGAGUGAUGUUCGAUAAUAAAAU [Mat - Mod of OpenEnded 3 - D14] | 170 nM
GGGUGGCAGGCGGCCGCCACUCUUAGCAGCCAGUGAGUGAUGUUCGUGGCGGAAGAAUGUUCGUAGAGGACCGGGUUUGUUGUUC [Same State Tryptophan B GF 21] | 257 nM
UUUUACGAGUGAUGUUCGUAAUGUAAUAGUUAGGAUAUCGUUUUUUCGAGAAGGAACUUCGAAGUGAUACGAAAGUAUCGCUUCG [FMN A 9] | 184 nM
GGUGGACUAGUCGAGUGAUGUUCGAGGCAUCGAGGACCGGUACGGCCGCCACUCGCAAAUCUACCGUGCGUUAACCACCAAAGUG [theeternabot_sameState_KL_Trp_A_37] | 304 nM
UUGAUAUGAUAGUAUCUUGUUUGAUAAAGGCAGGAUAUCGUAUAUUUGAGAAGGGCCAUUAUAUGCAGUGAUGUUGCAAAUAAGU [Exclusion FMN A Gf 25] | 41.3 nM
ACUGGGUUGACGAAAGUCAACAAAUGAGAAGGAGCGCACGAAAGUGCAGGUAGGUCGCUCAUUCCAGUGAUGUUGGAUCACCAGA [#SwitchBubble 19 #K4Late] | 836 nM
GAGAGCUCUGGAGGAUAUGAGUCUAGUGAUGUUAGGCGGUCCAUGCGCGUGGCGCGUUAUGCCCUUUUAGAAGGCCAGAGCUCUC [#2 Exclusion - FMN B Attempt #19 (HarryS)] | 99.8 nM
CUGGGUUGACGAAAAGUCAACAAACGAGAAGGAGCGCACGAAAGUGCAGGUAGGUCGCUCAGUCCAGUGAUGUUGGAACAUCCAG [#SwitchBubble 8 #K4Late] | 462 nM
GGGCCUGGGCCCGGAAGGGCCUGGGCCCGUUAGGAUAUGACGUGAUUCAGAAGGGAUGGGUGGAGUGAUGUUCCACCCGAGAGGG [#2 Same State - FMN A Attempt #25 (HarryS)] | 81.5 nM
GAUAUAGUGAUGUUAUAUAGGAAGGAGUUACGAGGACCGGUACGGCCGCCACUCGAAACGAGUGAUGAUUUGGGAGAUUGGGUUG [SSTryptA.P] | 395 nM
UGACUGGACUGAAGGAGCGCUAAAACUCCUAGUGAUGUUAGGAAAACGAGACAAAGUCUCGAGCAGGUAGGUCGCAGUCUAGUCU [ArgBS 21 #SwitchBubble #StaticStem] | 131 nM

same assay, conditions: Eterna round: R107; input ligand: theophylline 20 uM

Sequence | apparent KD of K4 kissing-loop reporter
CGCAGUGAUGUUGCGAAUAUAAUCACGGAAGGAGCGCGUGAAAACGCAGGUAGGUCGCCGUGUGGUAUGAUGGAAACAUCGUACC [Arginine A K4 12] | 206 nM
ACACUCGGCUCGGCCGCCACUCCAGUGAUGUUGGAGUCAUAGCUAUGACGAGAAGAGCGUUUUCGGAGGACCGGGAGCUCACAGG [Leveeder] | 351 nM
CGUUUAUAGCAGGAUACCAGUACCCAUAAAGUACGUUAAUAGUAGAGUGAUGUUCUAAAGUACCCUUGGCAGCUUCCCGUGACCC [ExTheophylB.W] | 182 nM
AUCCGAGAAUAUGAUACCAGCUGAGUGUAUCAAGACCGUAUCUCCCGUGCUAGUGAUGUUAGCCCUUGGCAGCAUAUGAAAGCGG [theeternabot_exclusion_KL_Theo_B_15] | 517 nM
UAGUCUCGAGUCUGAGAUUACGGGUCAGAUACCAGACUAGAGAUAGUCCCUUGGCAGCUGAAGUUCAGUGAUGUUGAACGGAUUA [Theo B SS t10a] | 510 nM
AAUUAAUGUAUAGAUUAUAUACAUUAAUCAGAGGAUAUGCUUUGUUGCAGAAGGCUGAAUGCAGUGAUGUUGCAAUUUUAAUUUA [JR_SSFMNA_Sub005] | 87.3 nM
CGCAAGCAGCCAGUGAUGUUGGCCGCCUUGCGAGGACCGGUACGGCCGCCACUCGAAGGCGGCUACUGAUAAACCGUCUAACGGA [KL-XTryp-A9] | 95.4 nM
ACGUUCGGAACGGCCGCCACUAUGGGCAGUGAUGUUGCCCAUAACCGGUUUUGCGUCAGAUCCCUUAGGACCGGGUUCUGGUAUA [Soonlesoso] | 65.8 nM
AGUGAUGUAUGGCGGUUUGUCACUUAUUAUCAGGAUAUAUAAACAAAUAGAAGGGAUGGCGGAGUGAUGUUCCGCCGGCCGCCAU [FMN A Exl V5] | 157 nM
AGAACUGUCUUGGAUACCAGUGAUGUUGGUAUCUGUGUGUGAGUGCAAAGCGUCCCACAUUGCCCUUGGCAGCUAAGACUGUUCA [Omei KL Theo B Exc A v1] | 182 nM
UUUGAAAUGACUGAUACCAGUGAAAAUAUAUGUAGUGAUGUUAUAUACUAAUUUAAUAAGCGCCCUUGGCAGCAGUAUGAAUUAU [AstrosExc-theB#16] | 527 nM
GCGAGUUUGCAAGGAUAUCGACCGUCGUACGACCAGUGAUGUUGGGAGUACUUUCAAAAUCGAUUUCGAGAAGGUGCUGGCAUCA [theeternabot_sameState_KL_FMN_B_12] | 248 nM
UAAUAUAAUCUGUCGUAAACAAUAAUUAGUCAGGAUAUCGUAUAUUCGAGAAGGGACACUAUCUAGUGAUGUUAGAUAUUUCGUU [JR_SSFMNA_Sub026] | 67.5 nM
GCGGGCCCUGGAGGAUAUGAGUCGAGUGAUGUUCGGCGGUCCAUGCCGAUGCGGCGUUAUGCCCUUUUAGAAGGCCAGGGCCCGC [#2 Exclusion - FMN B Attempt #7 (HarryS)] | 243 nM
GGUUCUGGAAUCGAGUGAUGUUCGGUGUUGCAGGAUAUAGAGAGAUCUAGAAGGGCAGUUUGUAUUUUAUUGAGUGAUUUUCUUU [Last Minute #3] | 106 nM
AUCGUUGUCUGAGGAUAUCGGUUAACUGUAGUGAUGUUACAGAAAAUUCAUAUAAUAUUUUCUAUUCGAGAAGGCAGACUACGUA [JR_ExcFMNB_Sub018] | 178 nM
GCUAUGGUAGGAAGGAGCGCUUGUUCGGUCAUAUGAGUGAUGUUCGAGACUGAGCAUUUAUAGCAGGUAGGUCGCCUACUAUAGC [Arginine B K4 10] | 160 nM
GCAAUUCUCAGUGAUGUUGAGUAAUCGGAAGGAGCGCGUGAAAACGCAGGUAGGUCGCCGAAACAUGAAGUAUCUUCGUGUUUGC [Arginine A K4 24] | 226 nM
GGAUUUGAGUGAUGUUUAAAACGAGUGUCCAAGGAUAUUGCCCAAACAAGAAGGUGGGCAUGCUUUUGCGAUAAUCAACGGAGAC [theeternabot_exclusion_KL_FMN_A_9] | 606 nM
GUAGGAUGAGGAGGAGGAUGAAUUACUGAAGGAGCGCAUAUUUUUGCAGGUAGGUCGCGGUAAAGAAGUAUAGUGAUGUUAUAUA [SSArgA.J] | 624 nM
CGUUUAUAGCAGGAUACCAGUACCCAUAAAGUACGUUAAUAGUAGAGUGAUGUUCUAAAGUACCCUUGGCAGCUUCCAGUGAGUG [ExTheophylB.S] | 165 nM
AAACGCUUGAAUAACAAGCGAAUAAAUUCGCGAGGACCGGUACGGCCGCCACUCGCUAACUGCGAGUGAUGUUCGAUAAUAAAAU [Mat - Mod of OpenEnded 3 - D14] | 176 nM
GGGUGGCAGGCGGCCGCCACUCUUAGCAGCCAGUGAGUGAUGUUCGUGGCGGAAGAAUGUUCGUAGAGGACCGGGUUUGUUGUUC [Same State Tryptophan B GF 21] | 254 nM
UUUUACGAGUGAUGUUCGUAAUGUAAUAGUUAGGAUAUCGUUUUUUCGAGAAGGAACUUCGAAGUGAUACGAAAGUAUCGCUUCG [FMN A 9] | 154 nM
